From patent publication US20230235013A1 (MABSOLVE, published 2023)
Substitutions are numbered along the chain they refer to. Numbers in names are those of the source.

T1: human FcγRIIA (R131, Sino Biological Cat. No. 10374-H08H) (human, UniProt P12318 34-218)
T1 construct: bought; also called human FcγRIIa R131 allele; FcγRII allele R131
T1 sequence (looked up): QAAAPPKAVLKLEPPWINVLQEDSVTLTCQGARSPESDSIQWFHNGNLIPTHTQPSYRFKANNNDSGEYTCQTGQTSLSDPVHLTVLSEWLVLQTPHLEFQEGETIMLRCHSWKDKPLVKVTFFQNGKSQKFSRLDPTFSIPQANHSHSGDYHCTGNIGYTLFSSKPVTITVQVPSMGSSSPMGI

B1: anti-CD20 human IgG1 L234A/L235S/G236R (antibody)
heavy: not shown
light: QIVLSQSPAILSASPGEKVTMTCRASSSVSYIHWFQQKPGSSPKPWIYATSNLASGVPVRFSGSGSGTSYSLTISRVEAEDAATYYCQQWTSNPPTFGGGTKLEIKRTVAAPSVFIFPPSDEQLKSGTASVVCLLNNFYPREAKVQWKVDNALQSGNSQESVTEQDSKDSTYSLSSTLTLSKADYEKHKVYACEVTHQGLSSPVTKSFNRGEC
notes: also called 2-4; 1-14
B2: anti-CD20 human IgG1 L234D/L235K/G236R (antibody)
heavy: QVQLQQPGAELVKPGASVKMSCKASGYTFTSYNMHWVKQTPGRGLEWIGAIYPGNGDTSYNQKFKGKATLTADKSSSTAYMQLSSLTSEDSAVYYCARSTYYGGDWYFNVWGAGTTVTVSSASTKGPSVFPLAPSSKSTSGGTAALGCLVKDYFPEPVTVSWNSGALTSGVHTFPAVLQSSGLYSLSSVVTVPSSSLGTQTYICNVNHKPSNTKVDKKVEPKSCDKTHTCPPCPAPEDKRGPSVFLFPPKPKDTLMISRTPEVTCVVVDVSHEDPEVKFNWYVDGVEVHNAKTKPREEQYNSTYRVVSVLTVLHQDWLNGKEYKCKVSNKALPAPIEKTISKAKGQPREPQVYTLPPSRDELTKNQVSLTCLVKGFYPSDIAVEWESNGQPENNYKTTPPVLDSDGSFFLYSKLTVDKSRWQQGNVFSCSVMHEALHNHYTQKSLSLSPGK
light: B1 light
notes: also called 2-7; 1-23
B3: anti-CD20 human IgG1 L234K/L235V/G236R (antibody)
heavy: B2 heavy with D238K, K239V
light: B1 light
notes: also called 2-26; 1-91
B4: anti-CD20 human IgG1 L234Q/L235V/G236R (antibody)
heavy: B2 heavy with D238Q, K239V
light: B1 light
B5: anti-CD20 human IgG1 L234R/L235E/G236R (antibody)
heavy: B2 heavy with D238R, K239E
light: B1 light
notes: also called 2-37
B6: anti-CD20 human IgG1 L234R/L235H/G236R (antibody)
heavy: B2 heavy with D238R, K239H
light: B1 light
notes: also called 2-38
B7: anti-CD20 human IgG1 L234S/L235H/G236R (antibody)
heavy: B2 heavy with D238S, K239H
light: B1 light
notes: also called 2-48
B8: anti-CD20 human IgG1 L234T/L235K/G236R (antibody)
heavy: B2 heavy with D238T
light: B1 light
notes: also called 2-58
B9: anti-CD20 human IgG1 L234T/L235Q/G236R (antibody)
heavy: B2 heavy with D238T, K239Q
light: B1 light
notes: also called 2-60
B10: anti-CD20 human IgG1 L234T/L235R/G236R (antibody)
heavy: B2 heavy with D238T, K239R
light: B1 light
notes: also called 2-61
B11: anti-CD20 human IgG1 L234T/L235S/G236R (antibody)
heavy: B2 heavy with D238T, K239S
light: B1 light
notes: also called 2-62
B12: anti-CD20 human IgG1 L234R/L235I/G236R (antibody)
heavy: B2 heavy with D238R, K239I
light: B1 light
notes: also called 2-39
B13: anti-CD20 human IgG1 L234R/L235R/G236R (antibody)
heavy: B2 heavy with D238R, K239R
light: B1 light
notes: also called 2-43
B14: anti-CD20 human IgG1 L234Q/L235S/G236R (antibody)
heavy: B2 heavy with D238Q, K239S
light: B1 light
notes: also called 10.77; copies: 2 + 2
B15: anti-CD20 human IgG1 L234Q/L235S/G236R/M252Y/S254T/T256E (antibody)
heavy: B2 heavy with D238Q, K239S, M256Y, S258T, T260E
light: B1 light
notes: also called 10.145; copies: 2 + 2
B16: anti-CD20 human IgG1 L234Q/L235S/G236R/T250Q/M428L (antibody)
heavy: B2 heavy with D238Q, K239S, T254Q, M432L
light: B1 light
notes: also called 10.146; copies: 2 + 2
B17: anti-CD20 human IgG1 L234S/L235V/G236R (antibody)
heavy: B2 heavy with D238S, K239V
light: B1 light
notes: also called 2-53; copies: 2 + 2
B18: anti-CD20 human IgG1 L234A/L235A/P329G (LALAPG reference) (antibody)
heavy: not shown
light: B1 light
notes: also called 2-66; copies: 2 + 2

biological target: T2, Histidine-tagged recombinant human FcγRI (CD64) (human, UniProt P12314 16-288, limits assumed); assay: SPR, His-FcγRI captured; Expt 3;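 note: biacore T200 SPR at 25 °C, Fc-variant antibodies at 100 µg/mL flowed 1 min over anti-His-captured FcγRI, signal taken just before injection end minus a buffer blank cycle; antibody analyte injected at 100 µg/mL for 1 min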
T2 construct: bought

Row | Corrected response (RU) | Binder
1 | 2.4 | B1
2 | 1.8 | B2
3 | 3.1 | B3
4 | 4.5 | B4
5 | 4.6 | B5
6 | 2.3 | B6
7 | 3.9 | B7
8 | 4.5 | B8
9 | 4.5 | B9
10 | 3.5 | B10
11 | 2.5 | B11

biological target: T3, human FcγRIIIA (F158) (human, UniProt P08637 17-208); assay: SPR, FcγRIIIA captured; note: test concentration or dose not given here
T3 construct: bought; F158 allele
T3 sequence (P08637 17-208 limits assumed): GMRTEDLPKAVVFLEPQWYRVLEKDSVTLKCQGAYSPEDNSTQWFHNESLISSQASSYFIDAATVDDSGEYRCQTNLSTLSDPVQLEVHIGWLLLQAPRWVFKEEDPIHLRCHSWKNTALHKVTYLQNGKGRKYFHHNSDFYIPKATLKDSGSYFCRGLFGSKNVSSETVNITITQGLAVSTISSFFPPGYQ

Row | Corrected response (RU) | Binder
12 | 6 | B1
13 | 3.7 | B2
14 | 5.5 | B3
15 | 4.7 | B4
16 | 4.6 | B5
17 | 3.9 | B6
18 | 2.7 | B12
19 | 10.2 | B13
20 | 3.7 | B7
21 | 3.5 | B8
22 | 3 | B9
23 | 3.8 | B10
24 | 2.5 | B11

biological target: T2, Histidine-tagged recombinant human …; assay: SPR, His-FcγRI captured; mean;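 note: biacore T200 SPR at 25 °C, anti-His surface capturing FcγRI, Fc-variant antibodies injected at 100 µg/mL for 1 min, signal near injection end minus third buffer blank, three repeats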

Row | Corrected response (RU), Mean [RU] | Binder
25 | 0.4 | B1
26 | 0.2 | B2
27 | 0.6 | B3
28 | 2.5 | B4
29 | 2.4 | B5
30 | 0.6 | B6
31 | 0.1 | B12
32 | 0.7 | B13
33 | 1.8 | B7
34 | 2.7 | B8
35 | 3 | B9
36 | 1.8 | B10
37 | 1.4 | B11

biological target: T4, Histidine-tagged recombinant human FcγRI (CD64) (human, UniProt P12314 16-288); assay: SPR, culture supernatant, captured His-FcγRI;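 note: biacore T200 SPR at 25 °C, anti-His capture, supernatants of HEK293 cells expressing IgG1 Fc variants injected 1 min, reference-subtracted response read 55 s after injection start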
T4 construct: bought; also called Sino Biological Cat. No. 12056-H08H

Row | Mean binding response [RU] | Binder
38 | 11.9 | B14

biological target: T2, Histidine-tagged recombinant human …; assay: SPR, His-FcγRI captured; Expt 1;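 note: SPR at 25 °C on anti-His antibody chip capturing FcγRI, Fc-variant antibodies injected at 100 µg/mL for 1 min, signal near end of injection minus buffer blank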

Row | Corrected response (RU) | Binder
39 | 0 | B1
40 | -1.4 | B2
41 | -1.7 | B3
42 | 0.5 | B4
43 | 0.9 | B5
44 | -1.2 | B6
45 | -0.8 | B12
46 | -0.4 | B13
47 | 0.4 | B7
48 | 1.1 | B8
49 | 2.2 | B9
50 | 0.2 | B10
51 | 0.8 | B11

biological target: T2, Histidine-tagged recombinant human …; assay: SPR, His-FcγRI captured; Expt 2;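 note: biacore T200 SPR at 25 °C, Fc-variant antibodies at 100 µg/mL flowed 1 min over anti-His-captured receptor, signal read near injection end minus third buffer blank; antibody analyte injected at 100 µg/mL for 1 min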

Row | Corrected response (RU) | Binder
52 | -1.2 | B1
53 | 0.1 | B2
54 | 0.4 | B3
55 | 2.5 | B4
56 | 1.8 | B5
57 | 0.7 | B6
58 | -0.2 | B12
59 | 1.8 | B13
60 | 1.1 | B7
61 | 2.4 | B8
62 | 2.3 | B9
63 | 1.6 | B10
64 | 0.9 | B11

biological target: T4, Histidine-tagged recombinant human …; assay: SPR, captured His-receptor

Row | binding result | Binder
65 | no binding (tested: 100 µg/mL) | B15
66 | no binding (tested: 100 µg/mL) | B16
67 | no binding (tested: 100 µg/mL) | B17

biological target: T1, human FcγRIIA (R131, Sino Biological …); assay: SPR, captured His-receptor

Row | binding result | Binder
68 | no binding (tested: 100 µg/mL) | B14
69 | no binding (tested: 100 µg/mL) | B18
70 | no binding (tested: 100 µg/mL) | B15
71 | no binding (tested: 100 µg/mL) | B16
72 | no binding (tested: 100 µg/mL) | B17

biological target: T5, human FcγRIIIB (NA2 allotype, Sino Biological Cat. No. 11046-H08H) (human, UniProt O75015 17-200); assay: SPR, captured His-receptor
T5 construct: bought; also called human FcγRIIIb NA2 allele

Row | binding result | Binder
73 | no binding (tested: 100 µg/mL) | B14
74 | no binding (tested: 100 µg/mL) | B18
75 | no binding (tested: 100 µg/mL) | B15
76 | no binding (tested: 100 µg/mL) | B16
77 | no binding (tested: 100 µg/mL) | B17
